Experimental findings from patent US9932621B2, “Modulators for Sirt5 and assays for screening same” (CORNELL UNIVERSITY, priority 2010, dated 2018) are described below.

For data set [1], the target named is T1, Sirt5 (Homo sapiens, UniProt Q9NXA8).
T1 construct: made in house
T1 sequence (Q9NXA8 37-310): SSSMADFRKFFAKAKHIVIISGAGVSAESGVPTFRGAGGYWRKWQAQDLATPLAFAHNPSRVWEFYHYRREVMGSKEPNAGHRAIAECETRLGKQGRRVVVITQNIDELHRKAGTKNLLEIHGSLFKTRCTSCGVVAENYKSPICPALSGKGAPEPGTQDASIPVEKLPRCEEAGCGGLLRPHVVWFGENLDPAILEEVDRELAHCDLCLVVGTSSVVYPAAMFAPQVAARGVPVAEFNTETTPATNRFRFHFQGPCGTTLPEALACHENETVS
The data set can be described thus: Sirt5 deacetylation, demalonylation, desuccinylation kinetics on WW-tagged peptides by HPLC. Type of data set: biochemical. The note with it: peptides with two C-terminal tryptophan residues; for Km: read-out: Peptide Km. On the procedure:
(§1) For determination of kcat and Km, human Sirt1, Sirt2, Sirt3 and Sirt5 were measured by detecting the deacylated peptide from H3K9 acyl peptides using HPLC. Purified Sirtuin was incubated with 1.0 mM of NAD in 20 mM Tris-HCl buffer (pH 7.5) containing acyl peptides (0-750 μM) and 1 mM DTT in 60 μL reactions at 37° C. The reactions were stopped with 100 mM HCl and 160 mM acetic acid, analyzed by HPLC with a reverse phase C18 column (250×4.6 mm, 90 A, 10 μm, GraceVydac, Southborough, Mass.), with a linear gradient of 0% to 20% B for 10 min (1 mL/min). […] The kcat and Km values were obtained by curve-fitting the Vinitial/[E] versus [S] plot using KaleidaGraph. For Sirt5 R105M, the observed second order rate constant, kobs (rate/([Sirtuin][NAD])) was detected instead of kcat and Km because of the very weak deacylation activity. The experiments were done in duplicate.
(§2) For comparing the deacetylation, demalonylation and desuccinylation activities of Sirt5 on different peptide backbones (results shown in Table 2), histone H3, GDH and ACS2 peptides with two tryptophan residues at the C-terminal were used to allow better detection and quantification on HPLC. The determination of kcat and Km was carried out essentially the same as mentioned above with slight modifications. The reactions were quenched with 60 μL 10% TFA. The chromatography gradient was 0% to 50% B for 20 min (1 mL/min). The peptides were detected and quantified on the LC by the absorption at 280 nm.

The target of data set [2] is T1, Sirt5. The data set can be described thus: Sirt5-catalyzed desuccinylation of AMC-succinyl peptides monitored by HPLC. In kind it is biochemical. The settings on record: 2 hrs. The protocol: […] The reactions were stopped with 200 mM HCl and 320 mM acetic acid, analyzed by HPLC with a reverse phase C18 column (250×4.6 mm, 90 A, 10 μm, GraceVydac, Southborough, Mass.), with a linear gradient of 0% to 20% B for 10 min (1 mL/min).

Substrate in data set [3]: C[C@H](NC(=O)[C@@H](NC(=O)[C@H](CCC(N)=O)NC(=O)[C@@H](N)CCCCN)[C@@H](C)O)C(=O)N[C@@H](CCCNC(=N)N)C(=O)N[C@@H](CCCCNC(=O)CCC(=O)O)C(=O)N[C@@H](CO)C(=O)N[C@H](C(=O)NCC(=O)NCC(=O)N[C@@H](Cc1c[nH]c2ccccc12)C(=O)N[C@@H](Cc1c[nH]c2ccccc12)C(=O)O)[C@@H](C)O
The data set can be described thus: Sirt5 deacetylation, demalonylation, desuccinylation kinetics on WW-tagged peptides by HPLC. The settings on record: other: Sirt5, peptides with two C-terminal tryptophan residues, pH 7.5. In kind it is biochemical, human. On the procedure: as §1, §2

Substrate in data set [4]: C[C@H](NC(=O)[C@@H](NC(=O)[C@H](CCC(N)=O)NC(=O)[C@@H](N)CCCCN)[C@@H](C)O)C(=O)N[C@@H](CCCNC(=N)N)C(=O)N[C@@H](CCCCNC(=O)CC(=O)O)C(=O)N[C@@H](CO)C(=O)N[C@H](C(=O)NCC(=O)NCC(=O)N[C@@H](Cc1c[nH]c2ccccc12)C(=O)N[C@@H](Cc1c[nH]c2ccccc12)C(=O)O)[C@@H](C)O
The description is as above. Type of data set: biochemical, human. The settings on record: other: Sirt5, peptides with two C-terminal tryptophan residues, pH 7.5. The protocol: as §1, §2

*1 amine or outer side, *2 acyl side, *3 side chain or, on linkers, in order; H or OH if unused. Where no end group is shown, it is not given here. The star is where a group is joined. Malonyl = O=C(CC(=O)[*:2])[*:1]; AMC = Cc1cc(=O)oc2cc(N*)ccc12; Suc = O=C(CCC(=O)[*:2])[*:1]

On to “GDH K503 (498-509 + WW) acetyl peptide: GDH K503 acetyl peptide (498-509) with two C-terminal tryptophan residues (SGASEK(Ac)DIVHSGWW)”, for which, in the data set with Sirt5 [1], the Km (in general, the substrate concentration at which the rate is half of its maximum) is over 750 µM.

Take “GDH K503 (498-509 + WW) malonyl peptide: GDH K503 malonyl peptide (498-509) with two C-terminal tryptophan residues (SGASEK(Malonyl)DIVHSGWW)”: in the data set with Sirt5 [1], the kcat (in general, the maximal rate divided by the concentration of active sites) was determined as 0.014 ± 0.001 s⁻¹ and the Km was 8.7 ± 1.3 µM.

Regarding “GDH K503 (498-509 + WW) succinyl peptide: GDH K503 succinyl peptide (498-509) with two C-terminal tryptophan residues (SGASEK(Suc)DIVHSGWW)”, in the data set with Sirt5 [1], the catalytic constant (kcat) came to 0.028 ± 0.002 s⁻¹ and the Km was 14 ± 4 µM.

Consider ISGASE(SuK)-AMC (ISGASEK(Suc)-{AMC}), for which the succinyl peptide desuccinylated in the data set with Sirt5 [2] (1 μM Sirt5, 300 μM peptide) is 7.3%; with Sirt5 [2] (2 μM Sirt5, 300 μM peptide), 17%; with Sirt5 [2] (5 μM Sirt5, 300 μM peptide), 36%.

Consider “KQTARK(Ac)STGGWW [H3 K9 (4-13 + WW) acetyl peptide]”, for which, on Sirt5 [1], the Km is over 750 µM.

B1: Sirt5 (Homo sapiens) (protein)
chain: SSSMADFRKFFAKAKHIVIISGAGVSAESGVPTFRGAGGYWRKWQAQDLATPLAFAHNPSRVWEFYHYRREVMGSKEPNAGHRAIAECETRLGKQGRRVVVITQNIDELHRKAGTKNLLEIHGSLFKTRCTSCGVVAENYKSPICPALSGKGAPEPGTQDASIPVEKLPRCEEAGCGGLLRPHVVWFGENLDPAILEEVDRELAHCDLCLVVGTSSVVYPAAMFAPQVAARGVPVAEFNTETTPATNRFRFHFQGPCGTTLPEALACHENETVS
notes: made in house
For the molecule B1, in data set [3], the Michaelis-Menten constant (Km) came out at 5.8 ± 2.7 µM; the kcat amounted to 0.025 ± 0.002 s⁻¹; the kcat/Km – broadly, the second-order rate constant that governs catalysis at low substrate concentration – came to 4300 M⁻¹ s⁻¹. Moreover, in data set [4], the Km came to 6.1 ± 2.8 µM, the kcat came out at 0.037 ± 0.003 s⁻¹ and the kcat/Km came out at 6100 M⁻¹ s⁻¹.
